Experimental data published in article PMC12809912, “Structural and epitope characterization of anti-DEFA5 monoclonal antibodies clones 1A8 and 4F5 for inflammatory bowel disease subtype diagnostics” (International journal of biological macromolecules, 2025).
Ends that are not written are not given here. * marks the point of attachment. Biotin = O=C1N[C@H]2[C@H](CS[C@H]2CCCCC(=O)*)N1

T1: peptide variant of … with the N-terminal Ala61 deleted (Homo sapiens, UniProt Q01523)
T1 construct: also called N-terminal deletion mutant; source: synthetic peptide (GenScript, >95 % purity)
T1 chain: RATCYCRTGRCATR

T2: peptide No. 57 of the overlapping library, DEFA5 amino acids 61-75 (ARATCYCRTGRCATR) (Homo sapiens)
T2 construct: human DEFA5 amino acids 61-75; source: synthetic peptide (GenScript, >95 % purity)
T2 chain: ARATCYCRTGRCATR

T3: biotinylated DEFA5 epitope peptide Biotin-RATCYCRTGRCAT (Homo sapiens, cysteine pairing not given here)
T3 construct: human DEFA5 residues 62-74; source: synthetic peptide
T3 chain: Biotin-RATCYCRTGRCAT


Experiments:
Conditions in all cases: both partners purified
[1] = target: T1, peptide variant of … with the …; assay: ELISA; indirect peptide ELISA: peptide coated at 5 ug/mL overnight at 4 C, antibody in PBST with 1 % BSA 2 h at 37 C, HRP goat anti-mouse IgG, OD 450 nm
[2] = target: T2, peptide No. 57 of the overlapping …; assay: as above
[3] = target: T3, biotinylated DEFA5 epitope peptide …; assay: SPR; Biacore 8K, Biotin-RATCYCRTGRCAT immobilised on SA chip (~95 RU), antibodies injected 7.81-125 nM, 25 C, HBS-EP+, 30 uL/min, global fit to a 1:1 binding model

| binding result [1] | binding result [2] | Kd [3] [nM] | stoichiometry N [3] | Binder |
| --- | --- | --- | --- | --- |
| binds | binds | 13.5 | 1 | mouse monoclonal antibody clone 1A8 (anti-DEFA5) (antibody, V domains shown, the print has a blank between NYKNT and PIMDTDG; Whole IgG, intact mass ~148.73 kDa; also called mAb 1A8; source: mouse hybridoma clone, purified monoclonal antibody) VH: QVQLQQSGAELVRPGASVKMSCKALGYTFFDYEMHWMKQTPVYGLEWIGAIHPGSGDTAYNQKFKGKATLTADKSSNTAYMELSSLTSEDSAVYYCTREGTVVAPFDYWGQGTTLTVSS VL: DVLMTQTPLSLPVSLGDQASISCRSSQSIVHSNGNTYLEWYLQKPGQSPKLLINKVSNRFSGVPDRFSGSGSGTDFTLKISRVEAEDLGVYYCFQGSYVPYTFGGGTKLEIK |
| binds | binds | 15 | 1 | mouse monoclonal antibody clone 4F5 (anti-DEFA5) (antibody, V domains shown, the print has a blank between NYKNT and PIMDTDG; Whole IgG, intact mass ~148.65 kDa; also called mAb 4F5; source: mouse hybridoma clone, purified monoclonal antibody) VH: QVQLQQSGAELVRPGASVKMSCKALGYTFFDYEMHWMKQTPVYGLEWIGAIHPGSGDTAYNQKFKGKATLTADKSSNTAYMELSSLTSEDSAVYYCTREGTVVAPFDYWGQGTTLTVSS VL: DVLMTQTPLSLPVSLGDQASISCRSSQSIVHSNGNTYLEWYLQKPGQSPKLLINKVSNRFSGVPDRFSGSGSGTDFTLKISRVEAEDLGVYYCFQGSYVPYTFGGGTKLEIK |
